Assay results published in article PMC6748660.

Molecular target: full-length mScarlet-tagged tau (2N4R) (human) (UniProt P10636)
Assay: TIRF microscopy, condensate enrichment assay

Q: How did the fold enrichment within mScarlet-2N4R condensates over the lattice turn out when “GFP-tagged isolated C-terminus of tau (domain or fragment)” was run?
A: 1.2 fold
